Experimental data: PMC3724652

Target: rat GluA2igQ with a His8/Myc tag between residues 22 and 23 (rat)
Experiment: AFM imaging of receptor-antibody complexes; receptors isolated by immunoaffinity chromatography from the total cellular pool, incubated with subunit- or tag-specific antibodies, adsorbed to mica at 0.04 nM, imaged in air in tapping mode; volumes of decorated particles and angles between two bound antibodies

- stoichiometry N: 4
Substance: rat GluA2igQ with a His8/Myc tag between residues 22 and 23 (receptor)
